Measurements as given in patent US20260176352A1 (BIRD ROCK BIO, published 2026).
Residue numbers refer to the chain shown, from its start. Names and notes keep the numbering of the source.

Legend:
[1] = target: T1, A138 iCAPS (CB1 with ICL3 native sequence replaced with protein 1 sequence) (human, UniProt P21554 99-414); experiment: ELISA, purified IgG on A138 CB1 iCAPS
T1 construct: The insert stands inside the chain in place of ICL3
Procedure: (§1) Purified IgG was tested for binding to purified CB1 receptor (CB1 Conformation Antigen Presenting System (iCAPS)) by ELISA. Non-biotinylated antigens (e.g. empty iCAPS) were coated directly on Maxisorp plates. The primary antibodies were purified IgGs with 1:3 serial dilutions, incubated on the plate for 1 hour. After 3 rounds of washing with PBST, secondary antibodies HRP goat anti-mouse IgG (Abmart) or HRP goat anti-human IgG (Sigma), depending on the species of the IgGs were added and incubated for another hour. The plates were washed three times with PBST, then developed with TMB (Biopanda). HCl was added to the plates to stop the reaction. Absorbance at 450 nm was read on Emax precision microplate reader (Molecular Devices).

[2] = target: T2, A139 iCAPS (CB1 with ICL3 native sequence replaced with BRIL) (human, UniProt P21554 99-414); experiment: ELISA, purified IgG on A139 CB1 iCAPS
T2 construct: The insert stands inside the chain in place of ICL3
Procedure: as §1

[3] = target: T3, native full length human CB1 receptor (cannabinoid 1 receptor) (human, UniProt P21554 1-472); experiment: cell-based or functional assay
[4] = target: T3, native full length human CB1 receptor …; experiment: flow cytometry, TRex-CHO full length native human CB1 cells; mean
Procedure: (§2) After being washed with 200 μL of FACS buffer twice, cells were incubated with secondary antibody for 30 minutes on ice. Cells were washed with 200 μL of FACS buffer twice and transferred to BD Falcon 5 mL tube and analyzed by FACS. Data analysis and measurement of binding affinity (KD) was performed using GraphPad Prism software.

[5] = target: T3, native full length human CB1 receptor …; experiment: flow cytometry, TRex-CHO full length native human CB1 cells; Exp 1
Procedure: as §2

[6] = target: T3, native full length human CB1 receptor …; experiment: flow cytometry, TRex-CHO full length native human CB1 cells; Exp 2
Procedure: as §2

[7] = target: T3, native full length human CB1 receptor …; experiment: cell-based or functional assay; remark: listed apart in the source
[8] = target: T3, native full length human CB1 receptor …; experiment: flow cytometry, Fab on TRex-CHO human CB1 cells
[9] = target: T3, native full length human CB1 receptor …; experiment: flow cytometry on TRex-CHO cells stably transfected with tetracycline inducible CB1, FITC-conjugated anti-human antibody [panel A]
[10] = target: T3, native full length human CB1 receptor …; experiment: cell-based or functional assay; remark: listed apart in the source
mouse CB1 = target: T4, mouse CB1 (mouse, UniProt P47746 1-473); experiment: flow cytometry on TRex-CHO mouse CB1 cells, lower panel
T4 construct: whole, on cells; also called TRexCHO Mouse CB1
Procedure: (§3) After being washed with 200 μl of FACS buffer twice, cells were incubated with PE conjugated anti-human secondary antibody (Southern Biotech) for 30 minutes on ice. Cells were washed with 200 μl of FACS buffer twice and transferred to BD Falcon 5 ml tube and analyzed by flow cytometry (BD FACScalibur).

human CB2 = target: T5, human CB2 (human, UniProt P34972 1-360); experiment: flow cytometry on TRex-CHO human CB2 cells, middle panel
T5 construct: whole, on cells; also called TRexCHO Human CB2
Procedure: as §3

T2 sequence (P21554 whole entry): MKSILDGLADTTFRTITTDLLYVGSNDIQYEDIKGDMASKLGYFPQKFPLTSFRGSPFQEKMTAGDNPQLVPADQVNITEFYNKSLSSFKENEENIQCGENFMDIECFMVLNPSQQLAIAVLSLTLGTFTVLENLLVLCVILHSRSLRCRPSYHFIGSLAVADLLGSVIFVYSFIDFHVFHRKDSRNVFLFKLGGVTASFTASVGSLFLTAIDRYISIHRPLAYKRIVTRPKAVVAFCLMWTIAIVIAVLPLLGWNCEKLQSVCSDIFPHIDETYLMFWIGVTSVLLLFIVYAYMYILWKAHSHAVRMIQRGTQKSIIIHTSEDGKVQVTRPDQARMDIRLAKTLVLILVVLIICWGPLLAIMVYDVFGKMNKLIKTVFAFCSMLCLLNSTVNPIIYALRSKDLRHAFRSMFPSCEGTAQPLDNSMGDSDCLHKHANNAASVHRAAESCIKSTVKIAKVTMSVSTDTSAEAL
T1 sequence (P21554 whole entry): as above
T3 sequence (P21554 whole entry): as above
T4 sequence (P47746 whole entry): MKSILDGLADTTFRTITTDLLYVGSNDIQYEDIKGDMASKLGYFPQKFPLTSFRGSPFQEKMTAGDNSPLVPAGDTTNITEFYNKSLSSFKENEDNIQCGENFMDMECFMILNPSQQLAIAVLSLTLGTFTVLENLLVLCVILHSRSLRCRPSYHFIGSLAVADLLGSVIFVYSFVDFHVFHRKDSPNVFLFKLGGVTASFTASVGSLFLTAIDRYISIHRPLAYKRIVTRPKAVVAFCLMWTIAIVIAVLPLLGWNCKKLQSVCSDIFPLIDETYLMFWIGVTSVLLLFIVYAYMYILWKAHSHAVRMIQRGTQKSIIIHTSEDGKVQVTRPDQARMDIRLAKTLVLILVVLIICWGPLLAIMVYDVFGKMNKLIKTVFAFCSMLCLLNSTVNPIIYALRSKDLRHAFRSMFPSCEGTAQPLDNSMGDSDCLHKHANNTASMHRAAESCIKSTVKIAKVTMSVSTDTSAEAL
T5 sequence (P34972 whole entry): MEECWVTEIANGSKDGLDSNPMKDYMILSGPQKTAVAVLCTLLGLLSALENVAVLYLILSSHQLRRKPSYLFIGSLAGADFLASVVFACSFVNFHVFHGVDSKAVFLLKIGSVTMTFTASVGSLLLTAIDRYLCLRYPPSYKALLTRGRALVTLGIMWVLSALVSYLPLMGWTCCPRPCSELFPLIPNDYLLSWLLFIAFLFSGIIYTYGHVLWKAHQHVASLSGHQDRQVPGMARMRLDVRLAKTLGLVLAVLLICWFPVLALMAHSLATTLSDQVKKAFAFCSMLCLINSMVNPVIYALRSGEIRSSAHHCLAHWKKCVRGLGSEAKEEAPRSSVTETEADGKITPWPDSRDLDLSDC

B1: PA2R3-P1F1 (chimeric) (antibody, V domains shown)
VH: EVQLQQSGAELMKPGASVKISCKATGYTFSSYWIEWVKQRPGHGLEWIGEILPGSGSTNYNEKFKGKATFTADTSSNTAYMQLSSLTSEDSAVYYCARGAWLLSYWYFDVWGAGTSVTVSS
VL: DIQMMQSTSSLSASLGDRVTISCSASQGISNYLNWYQQKPDGTVKLLIYYTSSLHSGVPSRFSGSGSGTQFSLKINSLQPEDFGSYYCQHHYGTPYTFGGGTKLELKR
EC50 [1]: 1.3 nM | EC50 [2]: 1.1 nM

B2: RY-HL-LC-A12 FACS4 (IgG4 S228P) (antibody, V domains shown)
VH: QVQLVQSGAEVKKPGSSVKVSCKASGYEFSYYWMNWVRQAPGQGLEWMGQIYPGDGETKYAQKFQGRVTITADKSTSTAYMELSSLRSEDTAVYYCARSHGNYLPYWGQGTLVTVSS
VL: EIVLTQSPATLSLSPGERATLSCRASQSVSSRYLHWYQQKPGQAPRLLIYGTSNLASGIPARFSGSGSGTDFTLTISRLEPEDFAVYYCHQYSRSPPTFGQGTKVEIKR
Exp 1 IC50 (nM), cAMP antagonist assay [3]: 48 nM | Exp 2 IC50 (nM), cAMP antagonist assay [3]: 33.9 nM | Exp 3 IC50 (nM), cAMP antagonist assay [3]: 42.4 nM | Kd [4]: 10.3 nM | Kd [5]: 11.5 nM | Kd [6]: 9.19 nM

B3: P1C4-h2 Fab (Fab, V domains shown)
VH: B2 VH
VL: EIVLTQSPATLSLSPGERATLSCRASQSVSSSYLHWYQQKPGQAPRLLIYSTSNLASGIPARFSGSGSGTDFTLTISRLEPEDFAVYYCHQYHRSPPTFGQGTKVEIK
notes: Fab; constant parts not described; also called humanized P1C4 Fab h2
IC50 cAMP assay [7]: 52 nM | Kd [8]: 14 nM | EC50 (read off the curve) [9]: 10 to 20 nM

B4: RY-LC-B12 FACS3 (IgG4 S228P) (antibody, V domains shown)
VH: B2 VH
VL: B2 VL with G51S, N54R, H90Q, S93H
Exp 1 IC50 (nM), cAMP antagonist assay [3]: 40.9 nM | Exp 2 IC50 (nM), cAMP antagonist assay [3]: 32.9 nM | Exp 3 IC50 (nM), cAMP antagonist assay [3]: 39.7 nM | Kd [4]: 8.82 nM | Kd [5]: 8.75 nM | Kd [6]: 8.89 nM

B5: RY-HL-LC-C12 FACS4 (IgG4 S228P) (antibody, V domains shown)
VH: B2 VH
VL: B2 VL with G51S, N54R, S93H
Exp 1 IC50 (nM), cAMP antagonist assay [3]: 76.8 nM | Exp 2 IC50 (nM), cAMP antagonist assay [3]: 52.5 nM | Exp 3 IC50 (nM), cAMP antagonist assay [3]: 43.1 nM | Kd [4]: 14.1 nM | Kd [5]: 14.4 nM | Kd [6]: 13.9 nM

B6: RY-LC-A10 FACS5 (IgG4 S228P) (antibody, V domains shown)
VH: B2 VH
VL: B2 VL with G51S, L55R, H90Q, S93H
Exp 1 IC50 (nM), cAMP antagonist assay [3]: 120 nM | Exp 2 IC50 (nM), cAMP antagonist assay [3]: 62.6 nM | Exp 3 IC50 (nM), cAMP antagonist assay [3]: 48.1 nM | Kd [4]: 12.4 nM | Kd [6]: 12.4 nM

B7: PA2LR3-P6G7 (chimeric) (antibody, human IgG1, kappa, V domains shown)
VH: EVQLQQSGAELVRPGSSVKISCKASGFAFSNYWMNWVKQRPGQGLEWIGQIYPGDGDTNFNGKFKGRAILTADISSNTAYMQLSSLTSEDSAVYFCARSHGNYFPYWGQGTLVTVSA
VL: DIVLTQSPAIMSASLGERVTMTCTASSSVSSSYLHWYQQKPGSSPKLWIYSTSNLASGVPARFSGSGSGTSYSLTISSMEAEDAATYYCHQHHRSPPTFGAGTKLELKR
EC50, cAMP agonist functional assay [10]: > 300 nM

B8: PA2LR3-P2D3 (chimeric) (antibody, human IgG1, kappa, V domains shown)
VH: B7 VH with F27Y, N31Y, F60Y, R67K, I69T, I74K, N77S, N102S, P105A
VL: DIELAQSPASLAVSLGQRATISCRASESVDSYGNSFMHWYQQKPGQPPKLLIYLASNLESGVPARFSGSGSRADFTLTIDPVEADDAATYYCLQYASSPPTFGAGTKLEIKR
EC50, cAMP agonist functional assay [10]: > 300 nM | EC50 [1]: 4.9 nM | EC50 [2]: 2.6 nM

B9: PA2LR3-P6B12 (chimeric) (antibody, human IgG1, kappa, V domains shown)
VH: B7 VH with F27Y, N31Y, F60Y, R67K, I69T, I74K, N77S, P105A
VL: B7 VL with D1Q, H92Y, P97L, T98A
EC50, cAMP assay in the presence of CP55940 [10]: ~1000 nM

B10: PA2LR3-P4B1 (chimeric) (antibody, human IgG1, kappa, V domains shown)
VH: B7 VH
VL: B7 VL with D1Q, H92Y, P97L
EC50, cAMP agonist functional assay [10]: > 300 nM | EC50 [1]: 1.28 nM | EC50 [2]: 1.41 nM

B11: PA2LR3-P4C6 (chimeric) (antibody, V domains shown)
VH: B7 VH with F27Y, N31Y, F60Y, R67K, I69T, I74K, N77S
VL: B7 VL with L4I, M11V, H90Q, H92W, H93S, R94S, S95Y, P97L, L107I
EC50 [1]: 0.4 nM | EC50 [2]: 0.4 nM

B12: PA2LR3-P3B10 (chimeric) (antibody, V domains shown)
VH: B7 VH with F27Y, N31Y, F60Y, R67K, I69T, I74K, N77S
VL: B7 VL with L4I, M11V, H90Q, H92W, H93S, R94S, S95Y, P97L, L107I
EC50 [1]: 1.4 nM | EC50 [2]: 0.78 nM

B13: PA2LR3-P2E5 (chimeric) (antibody, V domains shown)
VH: EVQLQQSGAELVRPGSSVKISCKASGYAFRDYWMNWVKQRPGQGLEWIGQIYPGDGATNYIGKFKGKATLTADKSSSTAYMQLSSLTSEDSAVYFCARSHGNYFPYWGHGTLVTVSA
VL: B7 VL with D1Q, H90Q, H92W, H93S, R94S, S95Y, P97L
EC50 [1]: 10 nM | EC50 [2]: 3.2 nM

B14: PA2LR3-P4G10 (chimeric) (antibody, V domains shown)
VH: B13 VH with S7F, R30S, D31Y, A57D, I61N, P105A, H109Q
VL: B7 VL with H90Q, H92W, H93S, R94S, S95N, P97L
EC50 [1]: 1.19 nM | EC50 [2]: 1.35 nM

B15: PA2LR3-P1G6 (chimeric) (antibody, V domains shown)
VH: B13 VH with R30S, D31Y, A57D, I61N, A72V, P105A, H109Q
VL: B7 VL with T5S, S78R, H90Q, H92W, H93S, R94S, S95Y, P97L
EC50 [1]: 81 nM | EC50 [2]: 35 nM

B16: PA2LR3-P1H4 (chimeric) (antibody, V domains shown)
VH: B13 VH with A28V, R30G, D31N, A57D, I61N, H109Q
VL: B7 VL with D1Q, H90Q, H92W, H93S, R94S, S95Y, P97L
EC50 [1]: 21 nM | EC50 [2]: 33.5 nM

B17: PA2LR3-P2B8 (chimeric) (antibody, V domains shown)
VH: B13 VH with R30S, D31Y, A57D, I61N, P105A, H109Q
VL: B7 VL with L4M, V29I, H92Y, P97L, T98A
EC50 [1]: 6.7 nM | EC50 [2]: 1.8 nM

B18: PA2LR3-P3B8 (chimeric) (antibody, V domains shown)
VH: B7 VH
VL: B7 VL with L4M, S51G, A61V, H90Q, H92W, H93S, R94S, S95Y, P97L
EC50 [1]: 71 nM

B19: P1C4-h2-IgG1 (antibody)
heavy: not shown
light: EIVLTQSPATLSLSPGERATLSCRASQSVSSSYLHWYQQKPGQAPRLLIYSTSNLASGIPARFSGSGSGTDFTLTISRLEPEDFAVYYCHQYHRSPPTFGQGTKVEIKRTVAAPSVFIFPPSDEQLKSGTASVVCLLNNFYPREAKVQWKVDNALQSGNSQESVTEQDSKDSTYSLSSTLTLSKADYEKHKVYACEVTHQGLSSPVTKSFNRGEC
notes: also called P1C4-H2 (YE); P1C4-H2 (YE)-IgG
binding result (mouse CB1): no binding (tested: about 300 nM (last point)) | binding result (human CB2): no binding (tested: about 300 nM (last point))

B20: P1C4-h4-IgG1 (antibody)
heavy: not shown
light: B19 light
notes: also called P1C4-H4 (YENG); P1C4-H4 (YENG)-IgG
binding result (mouse CB1): no binding (tested: about 300 nM (last point)) | binding result (human CB2): no binding (tested: about 300 nM (last point))
